Patent publication US20190185537A1 (AstraZeneca / MedImmune, published 2019)
Numbered stars: 1 amine (or outer) side, 2 acyl side, 3 side chain; on linkers, the order of the positions; unused ones are H or OH. Side chains are listed from the residue outwards. Ends that are not written are not given here. * marks the point of attachment. γGlu = O=C(O)[C@H](CCC(=O)[*:2])N[*:1]; Palmitoyl = CCCCCCCCCCCCCCCC(=O)*

T1: human glucose-dependent insulinotropic peptide (gastric inhibitory polypeptide) receptor (human) (UniProt P48546)
T1 sequence (looked up): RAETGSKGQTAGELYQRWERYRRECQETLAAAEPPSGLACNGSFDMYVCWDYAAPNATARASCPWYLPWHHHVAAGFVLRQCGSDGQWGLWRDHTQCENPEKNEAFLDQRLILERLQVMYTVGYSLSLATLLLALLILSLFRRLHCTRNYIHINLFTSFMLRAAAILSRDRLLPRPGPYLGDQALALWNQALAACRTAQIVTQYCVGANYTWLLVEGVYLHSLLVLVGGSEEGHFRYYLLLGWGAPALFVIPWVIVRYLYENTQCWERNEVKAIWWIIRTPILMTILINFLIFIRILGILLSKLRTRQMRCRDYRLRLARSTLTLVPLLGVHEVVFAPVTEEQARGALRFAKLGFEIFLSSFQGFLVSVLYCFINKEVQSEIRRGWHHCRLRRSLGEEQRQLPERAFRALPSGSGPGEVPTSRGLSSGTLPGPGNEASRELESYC

B1: g805 (peptide)
peptide: HSQGTFTSDYSKYK([γGlu-Palmitoyl])DSRRARDFVEWLEAGG-NH2
modifications: N-terminus assumed
SMILES: CCCCCCCCCCCCCCCC(=O)N[C@@H](CCC(=O)NCCCC[C@H](NC(=O)[C@H](Cc1ccc(O)cc1)NC(=O)[C@H](CCCCN)NC(=O)[C@H](CO)NC(=O)[C@H](Cc1ccc(O)cc1)NC(=O)[C@H](CC(=O)O)NC(=O)[C@H](CO)NC(=O)[C@@H](NC(=O)[C@H](Cc1ccccc1)NC(=O)[C@@H](NC(=O)CNC(=O)[C@H](CCC(N)=O)NC(=O)[C@H](CO)NC(=O)[C@@H](N)Cc1c[nH]cn1)[C@@H](C)O)[C@@H](C)O)C(=O)N[C@@H](CC(=O)O)C(=O)N[C@@H](CO)C(=O)N[C@@H](CCCNC(=N)N)C(=O)N[C@@H](CCCNC(=N)N)C(=O)N[C@@H](C)C(=O)N[C@@H](CCCNC(=N)N)C(=O)N[C@@H](CC(=O)O)C(=O)N[C@@H](Cc1ccccc1)C(=O)N[C@H](C(=O)N[C@@H](CCC(=O)O)C(=O)N[C@@H](Cc1c[nH]c2ccccc12)C(=O)N[C@@H](CC(C)C)C(=O)N[C@@H](CCC(=O)O)C(=O)N[C@@H](C)C(=O)NCC(=O)NCC(N)=O)C(C)C)C(=O)O
B2: g876 (peptide)
peptide: HSQGTFTSDYSEYK([γGlu-Palmitoyl])DSRRARDFVEWLEAGG-NH2
modifications: N-terminus assumed
SMILES: CCCCCCCCCCCCCCCC(=O)N[C@@H](CCC(=O)NCCCC[C@H](NC(=O)[C@H](Cc1ccc(O)cc1)NC(=O)[C@H](CCC(=O)O)NC(=O)[C@H](CO)NC(=O)[C@H](Cc1ccc(O)cc1)NC(=O)[C@H](CC(=O)O)NC(=O)[C@H](CO)NC(=O)[C@@H](NC(=O)[C@H](Cc1ccccc1)NC(=O)[C@@H](NC(=O)CNC(=O)[C@H](CCC(N)=O)NC(=O)[C@H](CO)NC(=O)[C@@H](N)Cc1c[nH]cn1)[C@@H](C)O)[C@@H](C)O)C(=O)N[C@@H](CC(=O)O)C(=O)N[C@@H](CO)C(=O)N[C@@H](CCCNC(=N)N)C(=O)N[C@@H](CCCNC(=N)N)C(=O)N[C@@H](C)C(=O)N[C@@H](CCCNC(=N)N)C(=O)N[C@@H](CC(=O)O)C(=O)N[C@@H](Cc1ccccc1)C(=O)N[C@H](C(=O)N[C@@H](CCC(=O)O)C(=O)N[C@@H](Cc1c[nH]c2ccccc12)C(=O)N[C@@H](CC(C)C)C(=O)N[C@@H](CCC(=O)O)C(=O)N[C@@H](C)C(=O)NCC(=O)NCC(N)=O)C(C)C)C(=O)O
B3: g780 (peptide)
peptide: HSQGTFTSDYSKYK([γGlu-Palmitoyl])DSRRARDFVAWLEAGG-NH2
modifications: N-terminus assumed
SMILES: CCCCCCCCCCCCCCCC(=O)N[C@@H](CCC(=O)NCCCC[C@H](NC(=O)[C@H](Cc1ccc(O)cc1)NC(=O)[C@H](CCCCN)NC(=O)[C@H](CO)NC(=O)[C@H](Cc1ccc(O)cc1)NC(=O)[C@H](CC(=O)O)NC(=O)[C@H](CO)NC(=O)[C@@H](NC(=O)[C@H](Cc1ccccc1)NC(=O)[C@@H](NC(=O)CNC(=O)[C@H](CCC(N)=O)NC(=O)[C@H](CO)NC(=O)[C@@H](N)Cc1c[nH]cn1)[C@@H](C)O)[C@@H](C)O)C(=O)N[C@@H](CC(=O)O)C(=O)N[C@@H](CO)C(=O)N[C@@H](CCCNC(=N)N)C(=O)N[C@@H](CCCNC(=N)N)C(=O)N[C@@H](C)C(=O)N[C@@H](CCCNC(=N)N)C(=O)N[C@@H](CC(=O)O)C(=O)N[C@@H](Cc1ccccc1)C(=O)N[C@H](C(=O)N[C@@H](C)C(=O)N[C@@H](Cc1c[nH]c2ccccc12)C(=O)N[C@@H](CC(C)C)C(=O)N[C@@H](CCC(=O)O)C(=O)N[C@@H](C)C(=O)NCC(=O)NCC(N)=O)C(C)C)C(=O)O
B4: g836 (peptide)
peptide: HSQGTFTSDYSKYK([γGlu-Palmitoyl])DSERARDFVEWLEAGG-NH2
modifications: N-terminus assumed
SMILES: CCCCCCCCCCCCCCCC(=O)N[C@@H](CCC(=O)NCCCC[C@H](NC(=O)[C@H](Cc1ccc(O)cc1)NC(=O)[C@H](CCCCN)NC(=O)[C@H](CO)NC(=O)[C@H](Cc1ccc(O)cc1)NC(=O)[C@H](CC(=O)O)NC(=O)[C@H](CO)NC(=O)[C@@H](NC(=O)[C@H](Cc1ccccc1)NC(=O)[C@@H](NC(=O)CNC(=O)[C@H](CCC(N)=O)NC(=O)[C@H](CO)NC(=O)[C@@H](N)Cc1c[nH]cn1)[C@@H](C)O)[C@@H](C)O)C(=O)N[C@@H](CC(=O)O)C(=O)N[C@@H](CO)C(=O)N[C@@H](CCC(=O)O)C(=O)N[C@@H](CCCNC(=N)N)C(=O)N[C@@H](C)C(=O)N[C@@H](CCCNC(=N)N)C(=O)N[C@@H](CC(=O)O)C(=O)N[C@@H](Cc1ccccc1)C(=O)N[C@H](C(=O)N[C@@H](CCC(=O)O)C(=O)N[C@@H](Cc1c[nH]c2ccccc12)C(=O)N[C@@H](CC(C)C)C(=O)N[C@@H](CCC(=O)O)C(=O)N[C@@H](C)C(=O)NCC(=O)NCC(N)=O)C(C)C)C(=O)O
B5: g850 (peptide)
peptide: HSQGTFTSDYSRYK([γGlu-Palmitoyl])DSRSARDFVAWLEA-NH2
modifications: N-terminus assumed
SMILES: CCCCCCCCCCCCCCCC(=O)N[C@@H](CCC(=O)NCCCC[C@H](NC(=O)[C@H](Cc1ccc(O)cc1)NC(=O)[C@H](CCCNC(=N)N)NC(=O)[C@H](CO)NC(=O)[C@H](Cc1ccc(O)cc1)NC(=O)[C@H](CC(=O)O)NC(=O)[C@H](CO)NC(=O)[C@@H](NC(=O)[C@H](Cc1ccccc1)NC(=O)[C@@H](NC(=O)CNC(=O)[C@H](CCC(N)=O)NC(=O)[C@H](CO)NC(=O)[C@@H](N)Cc1c[nH]cn1)[C@@H](C)O)[C@@H](C)O)C(=O)N[C@@H](CC(=O)O)C(=O)N[C@@H](CO)C(=O)N[C@@H](CCCNC(=N)N)C(=O)N[C@@H](CO)C(=O)N[C@@H](C)C(=O)N[C@@H](CCCNC(=N)N)C(=O)N[C@@H](CC(=O)O)C(=O)N[C@@H](Cc1ccccc1)C(=O)N[C@H](C(=O)N[C@@H](C)C(=O)N[C@@H](Cc1c[nH]c2ccccc12)C(=O)N[C@@H](CC(C)C)C(=O)N[C@@H](CCC(=O)O)C(=O)N[C@@H](C)C(N)=O)C(C)C)C(=O)O
B6: g601 (peptide)
peptide: HSQGTFTSDYSKYK([γGlu-Palmitoyl])DSRRAQDFVQWLEAGG-NH2
modifications: N-terminus assumed
SMILES: CCCCCCCCCCCCCCCC(=O)N[C@@H](CCC(=O)NCCCC[C@H](NC(=O)[C@H](Cc1ccc(O)cc1)NC(=O)[C@H](CCCCN)NC(=O)[C@H](CO)NC(=O)[C@H](Cc1ccc(O)cc1)NC(=O)[C@H](CC(=O)O)NC(=O)[C@H](CO)NC(=O)[C@@H](NC(=O)[C@H](Cc1ccccc1)NC(=O)[C@@H](NC(=O)CNC(=O)[C@H](CCC(N)=O)NC(=O)[C@H](CO)NC(=O)[C@@H](N)Cc1c[nH]cn1)[C@@H](C)O)[C@@H](C)O)C(=O)N[C@@H](CC(=O)O)C(=O)N[C@@H](CO)C(=O)N[C@@H](CCCNC(=N)N)C(=O)N[C@@H](CCCNC(=N)N)C(=O)N[C@@H](C)C(=O)N[C@@H](CCC(N)=O)C(=O)N[C@@H](CC(=O)O)C(=O)N[C@@H](Cc1ccccc1)C(=O)N[C@H](C(=O)N[C@@H](CCC(N)=O)C(=O)N[C@@H](Cc1c[nH]c2ccccc12)C(=O)N[C@@H](CC(C)C)C(=O)N[C@@H](CCC(=O)O)C(=O)N[C@@H](C)C(=O)NCC(=O)NCC(N)=O)C(C)C)C(=O)O
B7: g817 (peptide)
peptide: HSQGTFTSDYSKYK([γGlu-Palmitoyl])DSRAAQDFVQWLEAGG-NH2
modifications: N-terminus assumed
SMILES: CCCCCCCCCCCCCCCC(=O)N[C@@H](CCC(=O)NCCCC[C@H](NC(=O)[C@H](Cc1ccc(O)cc1)NC(=O)[C@H](CCCCN)NC(=O)[C@H](CO)NC(=O)[C@H](Cc1ccc(O)cc1)NC(=O)[C@H](CC(=O)O)NC(=O)[C@H](CO)NC(=O)[C@@H](NC(=O)[C@H](Cc1ccccc1)NC(=O)[C@@H](NC(=O)CNC(=O)[C@H](CCC(N)=O)NC(=O)[C@H](CO)NC(=O)[C@@H](N)Cc1c[nH]cn1)[C@@H](C)O)[C@@H](C)O)C(=O)N[C@@H](CC(=O)O)C(=O)N[C@@H](CO)C(=O)N[C@@H](CCCNC(=N)N)C(=O)N[C@@H](C)C(=O)N[C@@H](C)C(=O)N[C@@H](CCC(N)=O)C(=O)N[C@@H](CC(=O)O)C(=O)N[C@@H](Cc1ccccc1)C(=O)N[C@H](C(=O)N[C@@H](CCC(N)=O)C(=O)N[C@@H](Cc1c[nH]c2ccccc12)C(=O)N[C@@H](CC(C)C)C(=O)N[C@@H](CCC(=O)O)C(=O)N[C@@H](C)C(=O)NCC(=O)NCC(N)=O)C(C)C)C(=O)O

Each binder was assayed against human glucagon receptor (human, UniProt P47871 26-477) (assay: cell-based or functional assay).
human glucagon receptor, sequence (P47871 26-477): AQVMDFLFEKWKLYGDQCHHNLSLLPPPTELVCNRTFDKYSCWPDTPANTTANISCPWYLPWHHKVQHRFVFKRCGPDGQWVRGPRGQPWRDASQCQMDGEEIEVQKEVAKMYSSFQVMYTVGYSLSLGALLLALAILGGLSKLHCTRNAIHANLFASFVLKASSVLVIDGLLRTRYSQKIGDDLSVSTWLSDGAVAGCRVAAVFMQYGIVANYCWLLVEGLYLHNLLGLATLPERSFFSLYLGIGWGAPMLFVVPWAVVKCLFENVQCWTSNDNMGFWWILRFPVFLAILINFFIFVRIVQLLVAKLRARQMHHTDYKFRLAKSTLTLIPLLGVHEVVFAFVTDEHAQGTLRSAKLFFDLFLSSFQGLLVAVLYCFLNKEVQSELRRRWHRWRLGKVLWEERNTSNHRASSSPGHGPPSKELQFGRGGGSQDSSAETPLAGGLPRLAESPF

cAMP EC50 (assay 1) [nM]	Binder
0.00144	B1
0.0104	B2
0.000792	B3
0.0155	B4
0.00219	B5
0.000493	B6
0.00168	B7

Each binder was assayed against human GLP-1 receptor (human, UniProt P43220 24-463) (assay: cell-based or functional assay).
human GLP-1 receptor, sequence (P43220 24-463): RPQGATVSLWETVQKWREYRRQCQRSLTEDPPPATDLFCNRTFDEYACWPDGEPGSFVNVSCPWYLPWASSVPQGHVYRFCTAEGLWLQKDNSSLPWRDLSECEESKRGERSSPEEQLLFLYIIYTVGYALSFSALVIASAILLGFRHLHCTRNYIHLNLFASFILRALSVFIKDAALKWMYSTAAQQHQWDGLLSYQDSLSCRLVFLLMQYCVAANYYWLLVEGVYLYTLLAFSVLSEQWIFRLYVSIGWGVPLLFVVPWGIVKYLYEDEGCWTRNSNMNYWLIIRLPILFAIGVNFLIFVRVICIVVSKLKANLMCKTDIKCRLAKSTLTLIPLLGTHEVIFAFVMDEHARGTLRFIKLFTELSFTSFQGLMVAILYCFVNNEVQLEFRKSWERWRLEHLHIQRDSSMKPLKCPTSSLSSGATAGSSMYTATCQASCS

cAMP EC50 (assay 1) [nM]	Binder
0.0228	B1
0.0863	B2
0.012	B3
0.124	B4
0.0212	B5
0.0398	B6
0.0251	B7

The binders below were run against T1, human glucose-dependent insulinotropic peptide (gastric inhibitory polypeptide) receptor (human) (assay: cell-based or functional assay).

cAMP EC50 (assay 1) [nM]	Binder
99.7	B1
79	B2
64	B3
100	B4
89.6	B5
74.1	B6
15.2	B7
